Data taken from US20250154237A1 (A AND G PHARMACEUTICAL, published 2025).

T1: human recombinant his-tagged full-length progranulin (human, UniProt P28799 18-593)
T1 construct: mature; also called huPGRN; hu PGRN; not shown: his tag
T1 sequence (looked up): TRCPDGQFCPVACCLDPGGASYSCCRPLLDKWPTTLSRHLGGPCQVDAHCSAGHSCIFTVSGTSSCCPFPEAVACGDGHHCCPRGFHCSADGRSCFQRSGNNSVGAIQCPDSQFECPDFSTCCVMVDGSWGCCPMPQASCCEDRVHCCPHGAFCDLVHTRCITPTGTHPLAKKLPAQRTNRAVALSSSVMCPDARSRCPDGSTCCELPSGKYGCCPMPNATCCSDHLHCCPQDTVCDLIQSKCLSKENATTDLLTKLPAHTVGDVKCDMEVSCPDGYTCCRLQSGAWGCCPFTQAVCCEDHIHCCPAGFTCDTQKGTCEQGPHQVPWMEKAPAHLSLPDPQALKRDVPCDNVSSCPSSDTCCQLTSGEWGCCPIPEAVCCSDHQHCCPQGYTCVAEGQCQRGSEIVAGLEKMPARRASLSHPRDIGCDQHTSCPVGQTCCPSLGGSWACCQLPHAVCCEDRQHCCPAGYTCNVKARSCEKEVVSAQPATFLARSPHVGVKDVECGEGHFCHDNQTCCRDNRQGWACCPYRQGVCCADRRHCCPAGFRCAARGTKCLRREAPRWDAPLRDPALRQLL


How the values were obtained:
[1] = target: T1, human recombinant his-tagged …; test: BLI OctetRed96, mAb captured on AHC sensors, huPGRN as analyte, 25 C; design: Response: unit not given here
Experimental: Determination of Binding Affinity by Octet. OctetRed96 BLI technology was used to examine the binding characteristics of selected fully human antibodies to progranulin. The method is briefly described herein. Assays were performed at 25° C. Pre-conditioning of the pre hydrated (1 hr) anti-human Fc capture (AHC) sensors was performed by repeating 3 cycles of dipping sensors in regeneration buffer followed by neutralizing buffer (PBS). Anti-progranulin mAbs were captured at 20 μg/ml for 360 seconds on pre-conditioned biosensors. Sensors were then dipped in baseline buffer similar to the progranulin diluent (PBS). Sensors were then dipped into progranulin-containing wells as indicated for 420 seconds. The dissociation step was carried out in assay buffer (PBS) for 600 seconds. The KD was determined based on Kₒₙ and Koff using the experimental conditions described above.

[2] = target: T1, human recombinant his-tagged …; test: flow cytometry: progranulin binding to MDA-MB-231 cells with the antibody, % of hIgG control
Experimental: Progranulin Binding by Flow Cytometry. Binding assays were carried out on an […] Flow Cytometer using the instructions included therein. […] Out of the 45 mAbs assayed, 11 clones (shown in bold in Table 5) produced antibodies that were able to inhibit progranulin binding in a dose dependent fashion.

Row | Kd [1] [nM] | Response [1] | koff [1] [s⁻¹] | kon [1] [M⁻¹ s⁻¹] | % Control [2] [%] | Binder
1 | 0.476 | 0.932 | 7.21e-05 | 152000 | 60 | 16C11 (antibody, V domains shown, Fully human mAb from TC-mAb mouse hybridoma; also called mAb 16C11) VH: QVQLVESGGGVVQPGRSLRLSCAASGFTFSSYAMHWVRQAPGKGLEWVAVIWYDGSKKYNADSVKGRFTISRDNSKNTLYLQMNSLRAEDTAVYYCARDRGIGGDYWGQGTLVTVSS VL: not shown
2 | 0.587 | 0.64 | 2.95e-05 | 50300 | 116 | 14A6 (antibody, V domains shown, Fully human mAb from TC-mAb mouse hybridoma; also called mAb 14A6) VH: QVQLVESGGGVVQPGRSLRLSCAASGFTFSNYGMHWVRQAPGKGLEWVAVIWYDGSNKYYADSVKGRFTISRDNSKNTLYLQMNSLRAEDTAVYYCARGHSVSGGDYWGQGTLVTVSS VL: DIQMTQSPSSLSASVGDRVTITCRASQSVNSFLNWYQQTPGKAPKLLIYAASSLQSGVPPRFSGSGSGTDFTLTISSLQPEDFATYYCQQSYSTPYTFGQGTKLEIN
3 | 0.00413 | 0.89 | 5.38e-07 | 130000 | 55 | 10C8 (antibody, V domains shown, Fully human mAb from TC-mAb mouse hybridoma; also called mAb 10C8) VH: QVQLVQSGAEVKKPGASVKVSCKASGYTLTSYGISWVRQAPGQGLEWMGWISAYNGNTNYAQKLQGRVTMTTDTSTSTAYMELRSLRSDDTAVYYCARELLWFGELLSQYYYYGMDVWGQGTTVTVSS VL: DIQMTQSPSTLSASVGDRVTITCRASQNISRWLAWYQQKPGKAPKLLIFRASSLETGVPSRFGGSGSGTEFTLTISSLQPDDFATYYCQQYNSYYTFGQGTRLEIK
4 | 0.136 | 0.797 | 1.19e-05 | 86800 | 62 | 10B3 (antibody, V domains shown, Fully human mAb from TC-mAb mouse hybridoma; also called mAb 10B3) VH: QVQLVESGGGVVQPGRSLRLSCAASGFTLSGYGMHWVRQAPDKGLEWVAVIWYDGSDKNYADSVKGRFTISRDNSKNTLYLQMNSLRAEDTAVYYCARDRGAVAGDYWGQGTLVTVSS VL: not shown
